Data reported in paper PMC4957051, “Molecular Mechanism of Z α1-Antitrypsin Deficiency*” (The Journal of Biological Chemistry, 2016).
Numbering of substitutions follows the chain as printed. In names and notes the source's numbering stands.

B1: α1-AT-S292C-T339C-E342A, reduced form (natural protein, human, UniProt P01009 25-418, looked up)
chain: EDPQGDAAQKTDTSHHDQDHPTFNKITPNLAEFAFSLYRQLAHQSNSTNIFFSPVSIATAFAMLSLGTKADTHDEILEGLNFNLTEIPEAQIHEGFQELLRTLNQPDSQLQLTTGNGLFLSEGLKLVDKFLEDVKKLYHSEAFTVNFGDTEEAKKQINDYVEKGTQGKIVDLVKELDRDTVFALVNYIFFKGKWERPFEVKDTEEEDFHVDQVTTVKVPMMKRLGMFNIQHSKKLSSWVLLMKYLGNATAIFFLPDEGKLQHLENELTHDIITKFLENEDRRSASLHLPKLCITGTYDLKSVLGQLGITKVFSNGADLSGVTEEAPLKLSKAVHKAVLCIDAKGTEAAGAMFLEAIPRSIPPEVKFNKPFVFLMIEQNTKSPLFMGKVVNPTQK
notes: α1-antitrypsin (α1-AT), human cDNA in pQE31, Pittsburgh backbone (M358R and C232S) with S292C, T339C and E342A; Same chain as m6, with the engineered disulfide reduced; also called α1-AT-SS-E342A (reduced); source: E. coli, purified; reduced form prepared
B2: α1-AT E342A (Pittsburgh backbone) (natural protein, human, UniProt P01009 25-418, looked up)
chain: B1 chain with C292S, C339T
notes: α1-antitrypsin (α1-AT), human cDNA in pQE31, Pittsburgh backbone (M358R and C232S) with E342A; also called E342A mutant; source: E. coli, purified from the soluble fraction of the lysate

What was measured:
[1] = molecular target: thrombin; test: rates and stoichiometries of protease inhibition; as described previously (ref. 48); each value the average of three independent measurements
[2] = molecular target: activated factor X (FXa); test: as above
[3] = molecular target: B1; test: native gel or EMSA; peptide annealing: α1-AT variants (0.5 mg/ml) incubated with 100-fold molar excess of 6-mer peptide at 37 °C for different time intervals, then 8% native gel with 7 M urea; the binary complex resists urea; settings: both partners purified
[4] = molecular target: T1, recombinant wild type α1-antitrypsin (α1-AT Pittsburgh backbone, M358R and C232S) (human, UniProt P01009 25-418, M358R | C232S); test: as above; settings: both partners purified
T1 construct: α1-antitrypsin (α1-AT), human cDNA in pQE31, Pittsburgh backbone (M358R and C232S); probably the mature protein behind the tag; also called Wt; WT; source: E. coli, purified from the soluble fraction of the lysate

[5] = molecular target: T2, α1-AT E342C (Pittsburgh backbone) (human, UniProt P01009 25-418, M358R | C232S | E342C); test: as above; settings: both partners purified
T2 construct: α1-antitrypsin (α1-AT), human cDNA in pQE31, Pittsburgh backbone (M358R and C232S) with E342C; also called E342C mutant; source: E. coli, purified from the soluble fraction of the lysate

[6] = molecular target: T3, α1-AT-S292C-T339C-E342A, oxidized form (disulfide between s5A and s6A) (human, UniProt P01009 25-418, M358R | C232S | S292C | T339C | E342A, disulfide bond linking s5A and s6A (Cys-292 and Cys-339)); test: as above; settings: both partners purified
T3 construct: α1-antitrypsin (α1-AT), human cDNA in pQE31, Pittsburgh backbone (M358R and C232S) with S292C, T339C and E342A; Same chain as m7, with the engineered disulfide formed; also called α1-AT-SS-E342A (oxidized); source: E. coli, purified; oxidized form prepared

[7] = molecular target: B2; test: as above; settings: both partners purified
[8] = molecular target: the molecule itself; test: native gel or EMSA; thermal stability: α1-AT variants incubated at various temperatures in 10 mM Tris-HCl, pH 7.4, 0.1 M NaCl, 0.5 M urea for 30 min, then native gel

Row | SI (stoichiometry of inhibition) [1] | SI (stoichiometry of inhibition) [2] | Molecule | binding result [8] | also measured
1 | 3.4 | 3.4 | α1-AT E342C-mod (E342C with Cys-342 chemically converted to a lysine-like residue) (from UniProt P01009 25-418) (natural protein) | – | –
2 | 3 | 3 | α1-AT E342C (Pittsburgh backbone) (from UniProt P01009 25-418) (natural protein) | – | –
3 | 1.6 | – | recombinant wild type α1-antitrypsin (α1-AT Pittsburgh backbone, M358R and C232S) (from UniProt P01009 25-418) (natural protein) | – | –
4 | – | – | FLEAIG [6-mer peptide (FLEAIG) derived from the P7 to P2 sequence of the α1-AT reactive loop] | – | binding result [3]: binds; binding result [4]: binds; binding result [5]: binds; binding result [6]: binds; binding result [7]: binds
5 | – | – | B1 | binds | –
6 | – | – | B2 | binds | –
